Assay [1] addresses ZF-NB23.
Assay [2] concerns the target ZF-NB23. The source holds these as a separate data set.
Assay [3] has as its target ZF-NB23. This is another data set of the same source.

ZF-NB23, sequence (heavy, as listed by the source): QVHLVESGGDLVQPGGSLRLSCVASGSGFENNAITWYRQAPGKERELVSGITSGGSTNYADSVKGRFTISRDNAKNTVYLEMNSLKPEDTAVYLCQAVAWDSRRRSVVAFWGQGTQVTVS

Regarding “recombinant trimeric SARS-CoV-2 spike protein (from UniProt P0DTC2 14-1273) (natural protein)”, the MDC (minimal detectable concentration of Spike in the ZF-NB23 / NB15-T7 RNAP sensor) in the assay with ZF-NB23 [1] is 13 pM. For the same substance, the MDC (minimal detectable concentration of Spike in the fully de novo sensor) with NB15_C1-T7 RNAP and in the assay with ZF-NB23_D1 was 33.3 nM in each case. The same substance showed an MDC (minimal detectable concentration of Spike in the ZF-NB23 / NB15-T7 RNAP sensor, 10% nasal swab sample) with ZF-NB23 [2] of 40 pM. Also, in the assay with ZF-NB23 [3], the MDC (minimal detectable concentration of Spike, trehalase / glucose read-out) stood at 330 pM.
